The values below come from patent publication US6034062A, “Bone morphogenetic protein (BMP)-9 compositions and their uses” (Genetics Institute, Inc., priority 1997, dated 2000).

Sequences and labels used below:
B1: BMP-5: BMP protein used as unlabeled competing ligand (protein)
chain: AANKRKNQNRNKSSSHQDSSRMSSVGDYNTSEQKQACKKHELYVSFRDLGWQDWIIAPEGYAAFYCDGECSFPLNAHMNATNHAIVQTLVHLMFPDHVPKPCCAPTKLNAISVLYFDDSSNVILKKYRNMVVRSCGCH
B2: BMP-7: BMP protein used as unlabeled competing ligand (protein)
chain: STGSKQRSQNRSKTPKNQEALRMANVAENSSSDQRQACKKHELYVSFRDLGWQDWIIAPEGYAAYYCEGECAFPLNSYMNATNHAIVQTLVHFINPETVPKPCCAPTQLNAISVLYFDDSSNVILKKYRNMVVRACGCH
B3: BMP-6: BMP protein, cytokine in cartilage assay and competing ligand (protein)
chain: SASSRRRQQSRNRSTQSQDVARVSSASDYNSSELKTACRKHELYVSFQDLGWQDWIIAPKGYAANYCDGECSFPLNAHMNATNHAIVQTLVHLMNPEYVPKPCCAPTKLNAISVLYFDDNSNVILKKYRNMVVRACGCH
B4: TGF-β2: transforming growth factor β2 (protein)
chain: ALDAAYCFRNVQDNCCLRPLYIDFKRDLGWKWIHEPKGYNANFCAGACPYLWSSDTQHSRVLSLYNTINPEASASPCCVSQDLEPLTILYYIGKTPKIEQLSNMIVKSCKCS
B5: BMP-3: BMP protein used as unlabeled competing ligand (protein)
chain: QWIEPRNCARRYLKVDFADIGWSEWIISPKSFDAYYCSGACQFPMPKSLKPSNHATIQSIVRAVGVVPGIPEPCCVPEKMSSLSILFFDENKNVVLKVYPNMTVESCACR
B6: BMP-12: BMP protein used as unlabeled competing ligand (protein, UniProt Q7Z4P5 322-450, looked up)
Growth/differentiation factor …: TALAGTRTAQGSGGGAGRGHGRRGRSRCSRKPLHVDFKELGWDDWIIAPLDYEAYHCEGLCDFPLRSHLEPTNHAIIQTLLNSMAPDAAPASCCVPARLSPISILYIDAANNVVYKQYEDMVVEACGCR
B7: BMP-4: BMP protein, cytokine in cartilage assay and competing ligand (protein)
chain: SPKHHSQRARKKNKNCRRHSLYVDFSDVGWNDWIVAPPGYQAFYCHGDCPFPLADHLNSTNHAIVQTLVNSVNSSIPKACCVPTELSAISMLYLDEYDKVVLKNYQEMVVEGCGCR

The first assay has as its system BMP-9 receptors expressed on HepG2 cells. In words: 125I-BMP-9 binding to HepG2 cells. To be noted: HepG2 cells, 125I-BMP-9 and 250-fold excess of unlabeled ligand. As for the experimental part: BMP-9 responsiveness in parenchymal liver cells is tested by screening four liver cell lines for their ability to bind iodinated, CHO-derived BMP-9. […] Specific binding of BMP-9 to HepG2 cells is carried out by incubating HepG2 cells grown to confluence in Dulbecco's Modified Eagle's Medium (DME) containing 10% heat-inactivated fetal calf serum (FCS) on gelatinized 6 well plates with 2 ng/ml ^125 I-BMP-9 and increasing concentrations of unlabelled BMP-9 in binding buffer (136.9 mM NaCl, 5.37 mM KCl, 1.26 mM CaCl2, 0.64 mM MgSO4, 0.34 mM Na2 HPO4, 0.44 mM KH2 PO4, 0.49 mM MgCl2, 25 mM HEPES and 0.5% BSA, pH 7.4) for 20 hours at 4° C. to achieve binding equilibrium. This incubation follows a one hour preincubation at 37° C. in binding buffer alone. For crosslinking experiments, the cells were incubated with 500 μM disuccinimidyl suberate for 20 minutes at […] following binding. Cell extracts were analyzed on SDS-PAGE. […] To test the binding specificity of the receptors for BMP-9, HepG2 cells were incubated with ^125 I-BMP-9 and a 250-fold excess of different unlabeled ligands.
For the molecule B1, the “crossreactivity of BMP-9 receptors with unlabeled ligand” value (“crossreactivity of BMP-9 receptors” for short) is “no crossreactivity”.
Still for that read-out and setting: next, B2: “no crossreactivity”.
As for B3, the “crossreactivity of BMP-9 receptors” value is recorded as “no crossreactivity”.
For the molecule B4, the “crossreactivity of BMP-9 receptors” value was “no crossreactivity”.
With B5, the “crossreactivity of BMP-9 receptors” value was “no crossreactivity”.
Take B6: the “crossreactivity of BMP-9 receptors” value was “no crossreactivity”.
As to B7, the “crossreactivity of BMP-9 receptors” value is given as “limited crossreactivity”.

For the next assay, the system named is Articular cartilage explants from calf carpal joints. The assay is described as follows: Articular cartilage assay (proteoglycan synthesis, sulfate incorporation). It is filed as cell-based. The note with it: 100 ng/ml, calf articular cartilage explants. As for the experimental part: The effect of BMP-9 on articular cartilage proteoglycan and DNA synthesis is assayed to determine if BMP-9 is involved in the regulation of metabolism of differentiated articular cartilage.
Articular cartilage explants from calf carpal joints are maintained in DMEM with 50 μg/ml ascorbate, 4 mM glutamine and antibiotics for 3 days. Cytokines (rhBMP-2, rhBMP-4, rhBMP-6 and rhBMP-9, IGF-1, bFGF (1-1000 ng/ml), and TGFβ (1-100 ng/ml)) are added to the medium and culture is continued for 3 more days. Medium is changed daily. Twenty-four hours prior to harvest, explants are pulsed with 50 μCi/ml ^35 SO4 or 25 μCi/ml ^3 H-thymidine. Explants are solubilized and separation of free isotope is performed by gel chromatography. Total DNA of each explant is measured by a spectrophotometric assay.
As to B3, the proteoglycan synthesis entry is “significantly more active in stimulating proteoglycan synthesis”.
Still for that read-out and setting: next, B7: “significantly more active in stimulating proteoglycan synthesis”.
